# Laboratory results taken from US20180155451A1 (published 2018).
# T1: FcγRIIb (human, UniProt P31994 43-217)
# T1 construct: extracellular domain; also called FcgRIIb; 2b; not shown: His tag at the C terminus
# T1 sequence (looked up): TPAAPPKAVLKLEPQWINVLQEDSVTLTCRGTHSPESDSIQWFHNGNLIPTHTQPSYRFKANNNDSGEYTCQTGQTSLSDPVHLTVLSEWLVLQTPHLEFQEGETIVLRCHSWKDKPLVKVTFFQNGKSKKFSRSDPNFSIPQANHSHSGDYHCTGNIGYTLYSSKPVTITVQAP
# T2: FcγRIIb extracellular domain with C-terminal His tag (human, UniProt P31994 43-217)
# T2 construct: extracellular domain; soluble receptor expressed in FreeStyle293 cells, used as analyte in Biacore; also called FcgRIIb; 2b; not shown: His tag attached to the C terminus
# T2 sequence (looked up): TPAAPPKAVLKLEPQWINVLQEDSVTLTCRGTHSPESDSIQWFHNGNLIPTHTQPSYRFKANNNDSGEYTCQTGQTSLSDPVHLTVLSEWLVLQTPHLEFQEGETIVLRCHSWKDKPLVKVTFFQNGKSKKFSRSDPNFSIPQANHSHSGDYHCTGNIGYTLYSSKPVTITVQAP
# Columns and labels:
# FcγRIa = target: T3, FcγRIa (human, UniProt P12314 16-292); experiment: SPR (Biacore), captured antibody, soluble FcγR; relative to GpH7-A5/GpH7-B3/GpL16-k0
# T3 construct: extracellular domain; also called FcgRI; 1a; not shown: His tag at the C terminus
# FcγRIIb = target: T1, FcγRIIb; experiment: as above
# [1] = target: T4, FcγRIa extracellular domain with C-terminal His tag (human, UniProt P12314 16-292); experiment: SPR (Biacore), antibody captured on antigen peptide chip, FcγR as analyte; relative binding
# T4 construct: extracellular domain; soluble receptor expressed in FreeStyle293 cells, used as analyte in Biacore; also called FcgRI; 1a; not shown: His tag attached to the C terminus
# [2] = target: T2, FcγRIIb extracellular domain with …; experiment: as above
# T3 sequence (P12314 16-292): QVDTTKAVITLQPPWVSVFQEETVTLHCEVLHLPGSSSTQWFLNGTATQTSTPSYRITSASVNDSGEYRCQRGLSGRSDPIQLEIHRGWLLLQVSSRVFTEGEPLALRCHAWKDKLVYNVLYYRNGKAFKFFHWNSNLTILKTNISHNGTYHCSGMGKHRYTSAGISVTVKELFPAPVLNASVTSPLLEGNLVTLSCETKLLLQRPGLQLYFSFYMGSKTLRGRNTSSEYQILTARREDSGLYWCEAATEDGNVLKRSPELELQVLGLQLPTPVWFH
# T4 sequence (P12314 16-292): as above
Binder,He/Con_1a (FcγRIa),He/Con_2b (FcγRIIb),He/Con_1a [1],He/Con_2b [2]
"GpH7-A5/GpH7-B3 variant Y296_14T/GpL16-k0 (antibody, human IgG1, kappa, He Ab: mutation only in the GpH7-B3 H chain; EU numbering; also called He Ab) heavy 1: not shown heavy 2: not shown light: DIVMTQSPLSLPVTPGEPASISCQASESLVHSNRNTYLHWYLQKPGQSPQLLIYKVSNRFSGVPDRFSGSGSGTDFTLKISRVEAEDVGVYYCSQNTHVPPTFGQGTKVEIERTVAAPSVFIFPPSDEQLKSGTASVVCLLNNFYPREAKVQWKVDNALQSGNSQESVTEQDSKDSTYSLSSTLTLSKADYEKHKVYACEVTHQGLSSPVTKSFNRGEC","105 relative, HeCon Ab = 100","88.2 relative, HeCon Ab = 100",,
"GpH7-A5/GpH7-B3 variant Y296_09D/GpL16-k0 (antibody, human IgG1, kappa, He Ab: mutation only in the GpH7-B3 H chain; EU numbering; also called He Ab) heavy 1: not shown heavy 2: not shown light: DIVMTQSPLSLPVTPGEPASISCQASESLVHSNRNTYLHWYLQKPGQSPQLLIYKVSNRFSGVPDRFSGSGSGTDFTLKISRVEAEDVGVYYCSQNTHVPPTFGQGTKVEIERTVAAPSVFIFPPSDEQLKSGTASVVCLLNNFYPREAKVQWKVDNALQSGNSQESVTEQDSKDSTYSLSSTLTLSKADYEKHKVYACEVTHQGLSSPVTKSFNRGEC","106 relative, HeCon Ab = 100","98.9 relative, HeCon Ab = 100",,
"GpH7-A5/GpH7-B3 variant Y296_13S/GpL16-k0 (antibody, human IgG1, kappa, He Ab: mutation only in the GpH7-B3 H chain; EU numbering; also called He Ab) heavy 1: not shown heavy 2: not shown light: DIVMTQSPLSLPVTPGEPASISCQASESLVHSNRNTYLHWYLQKPGQSPQLLIYKVSNRFSGVPDRFSGSGSGTDFTLKISRVEAEDVGVYYCSQNTHVPPTFGQGTKVEIERTVAAPSVFIFPPSDEQLKSGTASVVCLLNNFYPREAKVQWKVDNALQSGNSQESVTEQDSKDSTYSLSSTLTLSKADYEKHKVYACEVTHQGLSSPVTKSFNRGEC","105 relative, HeCon Ab = 100","86.3 relative, HeCon Ab = 100",,
"GpH7-A5/GpH7-B3 variant Y296_01G/GpL16-k0 (antibody, human IgG1, kappa, He Ab: mutation only in the GpH7-B3 H chain; EU numbering; also called He Ab) heavy 1: not shown heavy 2: not shown light: DIVMTQSPLSLPVTPGEPASISCQASESLVHSNRNTYLHWYLQKPGQSPQLLIYKVSNRFSGVPDRFSGSGSGTDFTLKISRVEAEDVGVYYCSQNTHVPPTFGQGTKVEIERTVAAPSVFIFPPSDEQLKSGTASVVCLLNNFYPREAKVQWKVDNALQSGNSQESVTEQDSKDSTYSLSSTLTLSKADYEKHKVYACEVTHQGLSSPVTKSFNRGEC","103 relative, HeCon Ab = 100","79.3 relative, HeCon Ab = 100",,
"GpH7-A5/GpH7-B3 variant Y296_07I/GpL16-k0 (antibody, human IgG1, kappa, He Ab: mutation only in the GpH7-B3 H chain; EU numbering; also called He Ab) heavy 1: not shown heavy 2: not shown light: DIVMTQSPLSLPVTPGEPASISCQASESLVHSNRNTYLHWYLQKPGQSPQLLIYKVSNRFSGVPDRFSGSGSGTDFTLKISRVEAEDVGVYYCSQNTHVPPTFGQGTKVEIERTVAAPSVFIFPPSDEQLKSGTASVVCLLNNFYPREAKVQWKVDNALQSGNSQESVTEQDSKDSTYSLSSTLTLSKADYEKHKVYACEVTHQGLSSPVTKSFNRGEC","104 relative, HeCon Ab = 100","84.3 relative, HeCon Ab = 100",,
"GpH7-A5/GpH7-B3 variant Y296_10E/GpL16-k0 (antibody, human IgG1, kappa, He Ab: mutation only in the GpH7-B3 H chain; EU numbering; also called He Ab) heavy 1: not shown heavy 2: not shown light: DIVMTQSPLSLPVTPGEPASISCQASESLVHSNRNTYLHWYLQKPGQSPQLLIYKVSNRFSGVPDRFSGSGSGTDFTLKISRVEAEDVGVYYCSQNTHVPPTFGQGTKVEIERTVAAPSVFIFPPSDEQLKSGTASVVCLLNNFYPREAKVQWKVDNALQSGNSQESVTEQDSKDSTYSLSSTLTLSKADYEKHKVYACEVTHQGLSSPVTKSFNRGEC","106 relative, HeCon Ab = 100","98 relative, HeCon Ab = 100",,
"GpH7-A5/GpH7-B3 variant Y296_11K/GpL16-k0 (antibody, human IgG1, kappa, He Ab: mutation only in the GpH7-B3 H chain; EU numbering; also called He Ab) heavy 1: not shown heavy 2: not shown light: DIVMTQSPLSLPVTPGEPASISCQASESLVHSNRNTYLHWYLQKPGQSPQLLIYKVSNRFSGVPDRFSGSGSGTDFTLKISRVEAEDVGVYYCSQNTHVPPTFGQGTKVEIERTVAAPSVFIFPPSDEQLKSGTASVVCLLNNFYPREAKVQWKVDNALQSGNSQESVTEQDSKDSTYSLSSTLTLSKADYEKHKVYACEVTHQGLSSPVTKSFNRGEC","105 relative, HeCon Ab = 100","72.8 relative, HeCon Ab = 100",,
"GpH7-A5/GpH7-B3 variant Y296_16H/GpL16-k0 (antibody, human IgG1, kappa, He Ab: mutation only in the GpH7-B3 H chain; EU numbering; also called He Ab) heavy 1: not shown heavy 2: not shown light: DIVMTQSPLSLPVTPGEPASISCQASESLVHSNRNTYLHWYLQKPGQSPQLLIYKVSNRFSGVPDRFSGSGSGTDFTLKISRVEAEDVGVYYCSQNTHVPPTFGQGTKVEIERTVAAPSVFIFPPSDEQLKSGTASVVCLLNNFYPREAKVQWKVDNALQSGNSQESVTEQDSKDSTYSLSSTLTLSKADYEKHKVYACEVTHQGLSSPVTKSFNRGEC","106 relative, HeCon Ab = 100","92.2 relative, HeCon Ab = 100",,
"GpH7-A5/GpH7-B3 variant A327_03V/GpL16-k0 (antibody, human IgG1, kappa, heterodimerized anti-glypican-3 IgG1; alteration in the GpH7-B3 chain only; also called He Ab) heavy 1: not shown heavy 2: not shown light: DIVMTQSPLSLPVTPGEPASISCQASESLVHSNRNTYLHWYLQKPGQSPQLLIYKVSNRFSGVPDRFSGSGSGTDFTLKISRVEAEDVGVYYCSQNTHVPPTFGQGTKVEIERTVAAPSVFIFPPSDEQLKSGTASVVCLLNNFYPREAKVQWKVDNALQSGNSQESVTEQDSKDSTYSLSSTLTLSKADYEKHKVYACEVTHQGLSSPVTKSFNRGEC",,,103 % of control GpH7-A5/GpH7-B3/GpL16-k0 (=100),94.7 % of control GpH7-A5/GpH7-B3/GpL16-k0 (=100)
"GpH7-A5/GpH7-B3 variant Y296_08L/GpL16-k0 (antibody, human IgG1, kappa, He Ab: mutation only in the GpH7-B3 H chain; EU numbering; also called He Ab) heavy 1: not shown heavy 2: not shown light: DIVMTQSPLSLPVTPGEPASISCQASESLVHSNRNTYLHWYLQKPGQSPQLLIYKVSNRFSGVPDRFSGSGSGTDFTLKISRVEAEDVGVYYCSQNTHVPPTFGQGTKVEIERTVAAPSVFIFPPSDEQLKSGTASVVCLLNNFYPREAKVQWKVDNALQSGNSQESVTEQDSKDSTYSLSSTLTLSKADYEKHKVYACEVTHQGLSSPVTKSFNRGEC","104 relative, HeCon Ab = 100","82.3 relative, HeCon Ab = 100",,
